Article PMC4347646 (The Journal of Cell Biology, 2015)

Biological target: T1, Rab13 Q67L (in the Rab13 biosensor) (human, UniProt P51153 1-203, Q67L)
T1 sequence: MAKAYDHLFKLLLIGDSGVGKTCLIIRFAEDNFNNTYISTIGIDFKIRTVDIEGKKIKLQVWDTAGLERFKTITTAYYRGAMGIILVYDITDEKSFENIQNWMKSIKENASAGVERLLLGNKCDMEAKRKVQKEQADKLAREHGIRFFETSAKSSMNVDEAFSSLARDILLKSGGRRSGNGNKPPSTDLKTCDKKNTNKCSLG
Test: FRET or BRET

FRET/mCer ratio, higher than in the Rab13 T22N biosensor: 53%
B1: RBD of MICAL-L2 (in the Rab13 biosensor) (domain or fragment)
chain: not shown
